Assays:
HeLa Kyoto [1] = assay: melting temperature (median over replicates), in situ; higher = more thermally stable
HeLa Kyoto [2] = assay: thermal stability score vs G1/S (z-score of summed log2 fold changes over temperatures); higher = more thermally stable than in G1/S
HeLa Kyoto [3] = assay: solubility in G1/S (NP-40 vs SDS abundance) (log2 ratio); higher = more soluble; conditions: cell cycle stage: G1/S
HeLa Kyoto [4] = assay: solubility change mitosis vs G1/S (difference of NP-40 vs SDS log2 ratios) (log2 ratio difference); higher = more soluble in mitosis
[5] = cell cycle stage: early G1 (4.5 h after nocodazole release)
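Throughout, for melting temperature (median over replicates), in situ: HeLa Kyoto cells synchronized by double thymidine or nocodazole block, proteins quantified by TMT10plex mass spectrometry, three independent biological replicates.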
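Throughout, for solubility change mitosis vs G1/S (difference of NP-40 vs SDS log2 ratios): synchronized HeLa Kyoto cells (double thymidine block for G1/S, nocodazole release for mitosis), protein amounts in NP-40 versus SDS lysates quantified by mass spectrometry, three biological replicates.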
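Throughout, for solubility in G1/S (NP-40 vs SDS abundance): HeLa Kyoto cells arrested at G1/S by double thymidine block, proteins quantified by TMT10plex mass spectrometry in mild NP-40 versus SDS extracts, three biological replicates.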
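Throughout, for thermal stability score vs G1/S (z-score of summed log2 fold changes over temperatures): synchronized HeLa Kyoto cells, proteins quantified by TMT10plex mass spectrometry, three biological replicates, mitosis taken 0.5 h after nocodazole release, G1/S directly after double thymidine block.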

Chain of IRF2BP2 (chain, as listed by the source): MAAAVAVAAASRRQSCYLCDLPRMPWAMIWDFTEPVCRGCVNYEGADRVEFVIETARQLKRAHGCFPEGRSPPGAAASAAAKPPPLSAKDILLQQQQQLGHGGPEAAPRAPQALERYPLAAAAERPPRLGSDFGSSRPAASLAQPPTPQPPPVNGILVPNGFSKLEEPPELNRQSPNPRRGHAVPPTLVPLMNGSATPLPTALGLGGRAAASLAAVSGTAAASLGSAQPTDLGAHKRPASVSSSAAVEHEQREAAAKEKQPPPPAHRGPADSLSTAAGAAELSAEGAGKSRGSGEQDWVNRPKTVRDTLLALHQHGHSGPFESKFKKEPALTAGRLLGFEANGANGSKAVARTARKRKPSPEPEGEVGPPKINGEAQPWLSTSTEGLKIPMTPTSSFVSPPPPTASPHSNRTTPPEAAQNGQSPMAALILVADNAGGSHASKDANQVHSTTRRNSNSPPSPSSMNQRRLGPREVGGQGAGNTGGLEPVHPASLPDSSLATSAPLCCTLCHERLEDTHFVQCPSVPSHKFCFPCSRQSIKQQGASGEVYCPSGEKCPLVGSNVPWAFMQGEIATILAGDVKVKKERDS
Chain of STK24 (chain, as listed by the source): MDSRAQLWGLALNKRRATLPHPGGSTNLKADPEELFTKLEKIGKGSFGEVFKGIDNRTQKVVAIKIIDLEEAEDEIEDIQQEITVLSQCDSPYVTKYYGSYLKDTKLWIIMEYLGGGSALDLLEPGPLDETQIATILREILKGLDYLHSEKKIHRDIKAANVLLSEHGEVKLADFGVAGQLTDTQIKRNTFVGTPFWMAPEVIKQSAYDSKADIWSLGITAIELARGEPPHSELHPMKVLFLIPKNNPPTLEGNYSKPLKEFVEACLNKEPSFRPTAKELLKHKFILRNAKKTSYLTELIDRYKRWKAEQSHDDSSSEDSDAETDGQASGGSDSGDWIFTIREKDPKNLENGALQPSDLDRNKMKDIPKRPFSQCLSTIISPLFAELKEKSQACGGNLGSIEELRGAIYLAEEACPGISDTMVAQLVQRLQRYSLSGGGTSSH

Substance | melting temperature (HeLa Kyoto [1]; cell cycle stage: G1/S) | melting temperature (HeLa Kyoto [1]; cell cycle stage: mitosis) | thermal stability score (HeLa Kyoto [2]; [5]) | thermal stability score (HeLa Kyoto [2]; cell cycle stage: mitosis) | solubility in G1/S (log2) (HeLa Kyoto [3]) | solubility change mitosis (log2) (HeLa Kyoto [4])
MPSAKQRGSKGGHGAASPSEKGAHPSGGADDVAKKPPPAPQQPPPPPAPHPQQHPQQHPQNQAHGKGGHRGGGGGGGKSSSSSSASAAAAAAAASSSASCSRRLGRALNFLFYLALVAAAAFSGWCVHHVLEEVQQVRRSHQDFSRQREELGQGLQGVEQKVQSLQATFGTFESILRSSQHKQDLTEKAVKQGESEVSRISEVLQKLQNEILKDLSDGIHVVKDARERDFTSLENTVEERLTELTKSINDNIAIFTEVQKRSQKEINDMKAKVASLEESEGNKQDLKALKEAVKEIQTSAKSREWDMEALRSTLQTMESDIYTEVRELVSLKQEQQAFKEAADTERLALQALTEKLLRSEESVSRLPEEIRRLEEELRQLKSDSHGPKEDGGFRHSEAFEALQQKSQGLDSRLQHVEDGVLSMQVASARQTESLESLLSKSQEHEQRLAALQGRLEGLGSSEADQDGLASTVRSLGETQLVLYGDVEELKRSVGELPSTVESLQKVQEQVHTLLSQDQAQAARLPPQDFLDRLSSLDNLKASVSQVEADLKMLRTAVDSLVAYSVKIETNENNLESAKGLLDDLRNDLDRLFVKVEKIHEKV [CKAP4] | 52 °C | 52.4 °C | 5.49 | 6.55 | 0.635 | 0.148
IRF2BP2 | 53 °C | 52.6 °C | -0.348 | -1.16 | 0.391 | -0.0308
MEGLAGYVYKAASEGKVLTLAALLLNRSESDIRYLLGYVSQQGGQRSTPLIIAARNGHAKVVRLLLEHYRVQTQQTGTVRFDGYVIDGATALWCAAGAGHFEVVKLLVSHGANVNHTTVTNSTPLRAACFDGRLDIVKYLVENNANISIANKYDNTCLMIAAYKGHTDVVRYLLEQRADPNAKAHCGATALHFAAEAGHIDIVKELIKWRAAIVVNGHGMTPLKVAAESCKADVVELLLSHADCDRRSRIEALELLGASFANDRENYDIIKTYHYLYLAMLERFQDGDNILEKEVLPPIHAYGNRTECRNPQELESIRQDRDALHMEGLIVRERILGADNIDVSHPIIYRGAVYADNMEFEQCIKLWLHALHLRQKGNRNTHKDLLRFAQVFSQMIHLNETVKAPDIECVLRCSVLEIEQSMNRVKNISDADVHNAMDNYECNLYTFLYLVCISTKTQCSEEDQCKINKQIYNLIHLDPRTREGFTLLHLAVNSNTPVDDFHTNDVCSFPNALVTKLLLDCGAEVNAVDNEGNSALHIIVQYNRPISDFLTLHSIIISLVEAGAHTDMTNKQNKTPLDKSTTGVSEILLKTQMKMSLKCLAARAVRANDINYQDQIPRTLEEFVGFH [FEM1B] | 53.5 °C | 52.2 °C | 0.363 | -1.04 | -0.0515 | -0.0104
MPGMVLFGRRWAIASDDLVFPGFFELVVRVLWWIGILTLYLMHRGKLDCAGGALLSSYLIVLMILLAVVICTVSAIMCVSMRGTICNPGPRKSMSKLLYIRLALFFPEMVWASLGAAWVADGVQCDRTVVNGIIATVVVSWIIIAATVVSIIIVFDPLGGKMAPYSSAGPSHLDSHDSSQLLNGLKTAATSVWETRIKLLCCCIGKDDHTRVAFSSTAELFSTYFSDTDLVPSDIAAGLALLHQQQDNIRNNQEPAQVVCHAPGSSQEADLDAELENCHHYMQFAAAAYGWPLYIYRNPLTGLCRIGGDCCRSRTTDYDLVGGDQLNCHFGSILHTTGLQYRDFIHVSFHDKVYELPFLVALDHRKESVVVAVRGTMSLQDVLTDLSAESEVLDVECEVQDRLAHKGISQAARYVYQRLINDGILSQAFSIAPEYRLVIVGHSLGGGAAALLATMLRAAYPQVRCYAFSPPRGLWSKALQEYSQSFIVSLVLGKDVIPRLSVTNLEDLKRRILRVVAHCNKPKYKILLHGLWYELFGGNPNNLPTELDGGDQEVLTQPLLGEQSLLTRWSPAYSFSSDSPLDSSPKYPPLYPPGRIIHLQEEGASGRFGCCSAAHYSAKWSHEAEFSKILIGPKMLTDHMPDILMRALDSVVSDRAACVSCPAQGVSSVDVA [DAGLB] | 54.6 °C | 53.1 °C | -0.332 | -1.16 | -0.195 | -0.129
MAATLLAARGAGPAPAWGPEAFTPDWESREVSTGTTIMAVQFDGGVVLGADSRTTTGSYIANRVTDKLTPIHDRIFCCRSGSAADTQAVADAVTYQLGFHSIELNEPPLVHTAASLFKEMCYRYREDLMAGIIIAGWDPQEGGQVYSVPMGGMMVRQSFAIGGSGSSYIYGYVDATYREGMTKEECLQFTANALALAMERDGSSGGVIRLAAIAESGVERQVLLGDQIPKFAVATLPPA [PSMB6] | 59 °C | 59.6 °C | -1.97 | -2.64 | 0.119 | -0.103
MASYPSGSGKPKAKYPFKKRASLQASTAAPEARGGLGAPPLQSARSLPGPAPCLKHFPLDLRTSMDGKCKEIAEELFTRSLAESELRSAPYEFPEESPIEQLEERRQRLERQISQDVKLEPDILLRAKQDFLKTDSDSDLQLYKEQGEGQGDRSLRERDVLEREFQRVTISGEEKCGVPFTDLLDAAKSVVRALFIREKYMALSLQSFCPTTRRYLQQLAEKPLETRTYEQGPDTPVSADAPVHPPALEQHPYEHCEPSTMPGDLGLGLRMVRGVVHVYTRREPDEHCSEVELPYPDLQEFVADVNVLMALIINGPIKSFCYRRLQYLSSKFQMHVLLNEMKELAAQKKVPHRDFYNIRKVDTHIHASSCMNQKHLLRFIKRAMKRHLEEIVHVEQGREQTLREVFESMNLTAYDLSVDTLDVHADRNTFHRFDKFNAKYNPIGESVLREIFIKTDNRVSGKYFAHIIKEVMSDLEESKYQNAELRLSIYGRSRDEWDKLARWAVMHRVHSPNVRWLVQVPRLFDVYRTKGQLANFQEMLENIFLPLFEATVHPASHPELHLFLEHVDGFDSVDDESKPENHVFNLESPLPEAWVEEDNPPYAYYLYYTFANMAMLNHLRRQRGFHTFVLRPHCGEAGPIHHLVSAFMLAENISHGLLLRKAPVLQYLYYLAQIGIAMSPLSNNSLFLSYHRNPLPEYLSRGLMVSLSTDDPLQFHFTKEPLMEEYSIATQVWKLSSCDMCELARNSVLMSGFSHKVKSHWLGPNYTKEGPEGNDIRRTNVPDIRVGYRYETLCQELALITQAVQSEMLETIPEEAGITMSPGPQ [AMPD2] | 56.2 °C | 55 °C | -0.578 | -2.37 | 0.0591 | -0.181
MRRLGPFHPRVHWAAPPSLSSGLHRLLFLRGTRIPSSTTLSPPRHDSLSLDGGTVNPPRVREPTGREAFGPSPASSDWLPARWRNGRGGRPRARLCSGWTAAEEARRNPTLGGLLGRQRLLLRMGGGRLGAPMERHGRASATSVSSAGEQAAGDPEGRRQEPLRRRASSASVPAVGASAEGTRRDRLGSYSGPTSVSRQRVESLRKKRPLFPWFGLDIGGTLVKLVYFEPKDITAEEEEEEVESLKSIRKYLTSNVAYGSTGIRDVHLELKDLTLCGRKGNLHFIRFPTHDMPAFIQMGRDKNFSSLHTVFCATGGGAYKFEQDFLTIGDLQLCKLDELDCLIKGILYIDSVGFNGRSQCYYFENPADSEKCQKLPFDLKNPYPLLLVNIGSGVSILAVYSKDNYKRVTGTSLGGGTFFGLCCLLTGCTTFEEALEMASRGDSTKVDKLVRDIYGGDYERFGLPGWAVASSFGNMMSKEKREAVSKEDLARATLITITNNIGSIARMCALNENINQVVFVGNFLRINTIAMRLLAYALDYWSKGQLKALFSEHEGYFGAVGALLELLKIP [PANK2] | 53.1 °C | 55.1 °C | 0.0148 | 0.653 | 0.04 | -0.196
STK24 | 51.7 °C | 52.3 °C | 4.29 | 2.12 | 0.479 | -0.0565
MSADGAEADGSTQVTVEEPVQQPSVVDRVASMPLISSTCDMVSAAYASTKESYPHIKTVCDAAEKGVRTLTAAAVSGAQPILSKLEPQIASASEYAHRGLDKLEENLPILQQPTEKVLADTKELVSSKVSGAQEMVSSAKDTVATQLSEAVDATRGAVQSGVDKTKSVVTGGVQSVMGSRLGQMVLSGVDTVLGKSEEWADNHLPLTDAELARIATSLDGFDVASVQQQRQEQSYFVRLGSLSERLRQHAYEHSLGKLRATKQRAQEALLQLSQVLSLMETVKQGVDQKLVEGQEKLHQMWLSWNQKQLQGPEKEPPKPEQVESRALTMFRDIAQQLQATCTSLGSSIQGLPTNVKDQVQQARRQVEDLQATFSSIHSFQDLSSSILAQSRERVASAREALDHMVEYVAQNTPVTWLVGPFAPGITEKAPEEKK [PLIN3] | 56.7 °C | 57.3 °C | -0.144 | 0.126 | 0.715 | 0.0467
MSSRIARALALVVTLLHLTRLALSTCPAACHCPLEAPKCAPGVGLVRDGCGCCKVCAKQLNEDCSKTQPCDHTKGLECNFGASSTALKGICRAQSEGRPCEYNSRIYQNGESFQPNCKHQCTCIDGAVGCIPLCPQELSLPNLGCPNPRLVKVTGQCCEEWVCDEDSIKDPMEDQDGLLGKELGFDASEVELTRNNELIAVGKGSSLKRLPVFGMEPRILYNPLQGQKCIVQTTSWSQCSKTCGTGISTRVTNDNPECRLVKETRICEVRPCGQPVYSSLKKGKKCSKTKKSPEPVRFTYAGCLSVKKYRPKYCGSCVDGRCCTPQLTRTVKMRFRCEDGETFSKNVMMIQSCKCNYNCPHANEAAFPFYRLFNDIHKFRD [CYR61] | 52.8 °C | 54.1 °C | 5.63 | 3.33 | -0.183 | -0.133
MLPYTVNFKVSARTLTGALNAHNKAAVDWGWQGLIAYGCHSLVVVIDSITAQTLQVLEKHKADVVKVKWARENYHHNIGSPYCLRLASADVNGKIIVWDVAAGVAQCEIQEHAKPIQDVQWLWNQDASRDLLLAIHPPNYIVLWNADTGTKLWKKSYADNILSFSFDPFDPSHLTLLTSEGIVFISDFSPSKPPSGPGKKVYISSPHSSPAHNKLATATGAKKALNKVKILITQEKPSAEFITLNDCLQLAYLPSKRNHMLLLYPREILILDLEVNQTVGVIAIERTGVPFLQVIPCFQRDGLFCLHENGCITLRVRRSYNNIFTTSNEEPDPDPVQELTYDLRSQCDAIRVTKTVRPFSMVCCPVNENAAALVVSDGRVMIWELKSAVCNRNSRNSSSGVSPLYSPVSFCGIPVGVLQNKLPDLSLDNMIGQSAIAGEEHPRGSILREVHLKFLLTGLLSGLPAPQFAIRMCPPLTTKNIKMYQPLLAVGTSNGSVLVYHLTSGLLHKELSIHSCEVKGIEWTSLTSFLSFATSTPNNMGLVRNELQLVDLPTGRSIAFRGERGNDESAIEMIKVSHLKQYLAVVFRDKPLELWDVRTCTLLREMSKNFPTITALEWSPSHNLKSLRKKQLATREAMARQTVVSDTELSIVESSVISLLQEAESKSELSQNISAREHFVFTDIDGQVYHLTVEGNSVKDSARIPPDGSMGSITCIAWKGDTLVLGDMDGNLNFWDLKGRVSRGIPTHRSWVRKIRFAPGKGNQKLIAMYNDGAEVWDTKEVQMVSSLRSGRNVTFRILDVDWCTSDKVILASDDGCIRVLEMSMKSACFRMDEQELTEPVWCPYLLVPRASLALKAFLLHQPWNGQYSLDISHVDYPENEEIKNLLQEQLNSLSNDIKKLLLDPEFTLLQRCLLVSRLYGDESELHFWTVAAHYLHSLSQEKSASTTAPKEAAPRDKLSNPLDICYDVLCENAYFQKFQLERVNLQEVKRSTYDHTRKCTDQLLLLGQTDRAVQLLLETSADNQHYYCDSLKACLVTTVTSSGPSQSTIKLVATNMIANGKLAEGVQLLCLIDKAADACRYLQTYGEWNRAAWLAKVRLNPEECADVLRRWVDHLCSPQVNQKSKALLVLLSLGCFFSVAETLHSMRYFDRAALFVEACLKYGAFEVTEDTEKLITAIYADYARSLKNLGFKQGAVLFASKAGAAGKDLLNELESPKEEPIEE [WDR11] | 52.8 °C | 53.4 °C | 1.39 | 0.377 | -0.123 | -0.106

Reference: the supplement of paper PMC5998384
